Assay results as given in patent US20230002480A1.

Experiments:
Assay in all cases: cell-based or functional assay
[1] = target: HIV-1 Env of pseudovirus Ce1086_B2 (HIV-1)
[2] = target: HIV-1 Env of pseudovirus 235-47 (HIV-1)
[3] = target: HIV-1 Env of pseudovirus 9004SS_A3_4 (HIV-1)
[4] = target: HIV-1 Env of pseudovirus HIV-0013095-2.11 (HIV-1)
[5] = target: HIV-1 Env of pseudovirus T250-4 (HIV-1)
[6] = target: HIV-1 Env of pseudovirus 3365.v2.c2 (HIV-1)
[7] = target: HIV-1 Env of pseudovirus TRJO4551.58 (HIV-1)
[8] = target: HIV-1 Env of pseudovirus 1056_10_TA11_1826 (HIV-1)
[9] = target: HIV-1 Env of pseudovirus SC05_8C11_2344 (HIV-1)
[10] = target: HIV-1 Env of pseudovirus QH0692.42 (HIV-1)
[11] = target: HIV-1 Env of pseudovirus HIV-16055-2.3 (HIV-1)
[12] = target: HIV-1 Env of pseudovirus 191084 B7-19 (HIV-1)
[13] = target: HIV-1 Env of pseudovirus ZM53M.PB12 (HIV-1)
[14] = target: HIV-1 Env of pseudovirus 1012_11_TC21_3257 (HIV-1)
[15] = target: HIV-1 Env of pseudovirus ZM233M.PB6 (HIV-1)
[16] = target: HIV-1 Env of pseudovirus CNE8 (HIV-1)
[17] = target: HIV-1 Env of pseudovirus ZM135M.PL10a (HIV-1)
[18] = target: HIV-1 Env of pseudovirus C2101.c01 (HIV-1)
[19] = target: HIV-1 Env of pseudovirus 1006_11_C3_1601 (HIV-1)
[20] = target: HIV-1 Env of pseudovirus ZM197M.PB7 (HIV-1)
[21] = target: HIV-1 Env of pseudovirus 620345.c01 (HIV-1)
[22] = target: HIV-1 Env of pseudovirus R1166.c01 (HIV-1)
[23] = target: HIV-1 Env of pseudovirus 263-8 (HIV-1)
[24] = target: HIV-1 Env of pseudovirus 211-9 (HIV-1)
[25] = target: HIV-1 Env of pseudovirus CNE53 (HIV-1)
[26] = target: HIV-1 Env of pseudovirus Q23.17 (HIV-1)
[27] = target: HIV-1 Env of pseudovirus T278-50 (HIV-1)
[28] = target: HIV-1 Env of pseudovirus CNE19 (HIV-1)
[29] = target: HIV-1 Env of pseudovirus BJOX009000.02.4 (HIV-1)
[30] = target: HIV-1 Env of pseudovirus 928-28 (HIV-1)
[31] = target: HIV-1 Env of pseudovirus PVO.4 (HIV-1)
[32] = target: HIV-1 Env of pseudovirus 249M B10 (HIV-1)
[33] = target: HIV-1 Env of pseudovirus 3817.v2.c59 (HIV-1)
[34] = target: HIV-1 Env of pseudovirus 3103.v3.c10 (HIV-1)
[35] = target: HIV-1 Env of pseudovirus 3301.v1.c24 (HIV-1)
[36] = target: HIV-1 Env of pseudovirus 6811.v7.c18 (HIV-1)
[37] = target: HIV-1 Env of pseudovirus 6041.v3.c23 (HIV-1)

Substance: N49P7 (antibody)
- neutralization IC50 [1]: 0.089 µg/mL
- neutralization IC80 [1]: 0.568 µg/mL
- neutralization MPI [1]: 100
- neutralization IC50 [2]: 0.045 µg/mL
- neutralization IC80 [2]: 0.3 µg/mL
- neutralization MPI [2]: 99
- neutralization IC50 [3]: 0.125 µg/mL
- neutralization IC80 [3]: 0.39 µg/mL
- neutralization MPI [3]: 100
- neutralization IC50 [4]: 0.073 µg/mL
- neutralization IC80 [4]: 0.253 µg/mL
- neutralization MPI [4]: 100
- neutralization IC50 [5]: 2.07 µg/mL
- neutralization IC80 [5]: 21.4 µg/mL
- neutralization MPI [5]: 91
- neutralization IC50 [6]: 0.07 µg/mL
- neutralization IC80 [6]: 0.186 µg/mL
- neutralization MPI [6]: 100
- neutralization IC50 [7]: 0.104 µg/mL
- neutralization IC80 [7]: 0.351 µg/mL
- neutralization MPI [7]: 100
- neutralization IC50 [8]: 0.141 µg/mL
- neutralization IC80 [8]: 0.468 µg/mL
- neutralization MPI [8]: 100
- neutralization IC50 [9]: 0.164 µg/mL
- neutralization IC80 [9]: 0.403 µg/mL
- neutralization MPI [9]: 100
- neutralization IC50 [10]: 0.663 µg/mL
- neutralization IC80 [10]: 2.41 µg/mL
- neutralization MPI [10]: 100
- neutralization IC50 [11]: 0.057 µg/mL
- neutralization IC80 [11]: 0.28 µg/mL
- neutralization MPI [11]: 100
- neutralization IC50 [12]: 0.047 µg/mL
- neutralization IC80 [12]: 0.142 µg/mL
- neutralization MPI [12]: 100
- neutralization IC50 [13]: 0.251 µg/mL
- neutralization IC80 [13]: 0.8 µg/mL
- neutralization MPI [13]: 100
- neutralization IC50 [14]: 0.046 µg/mL
- neutralization IC80 [14]: 0.125 µg/mL
- neutralization MPI [14]: 100
- neutralization IC50 [15]: 0.226 µg/mL
- neutralization IC80 [15]: 0.774 µg/mL
- neutralization MPI [15]: 100
- neutralization IC50 [16]: 0.037 µg/mL
- neutralization IC80 [16]: 0.125 µg/mL
- neutralization MPI [16]: 100
- neutralization IC50 [17]: 0.2 µg/mL
- neutralization IC80 [17]: 0.96 µg/mL
- neutralization MPI [17]: 100
- neutralization IC50 [18]: 0.06 µg/mL
- neutralization IC80 [18]: 0.34 µg/mL
- neutralization MPI [18]: 100
- neutralization IC50 [19]: 0.044 µg/mL
- neutralization IC80 [19]: 0.158 µg/mL
- neutralization MPI [19]: 100
- neutralization IC50 [20]: 0.109 µg/mL
- neutralization IC80 [20]: 0.347 µg/mL
- neutralization MPI [20]: 100
- neutralization IC50 [21]: 23.2 µg/mL
- neutralization IC80 [21]: 47.9 µg/mL
- neutralization MPI [21]: 82
- neutralization IC50 [22]: 0.092 µg/mL
- neutralization IC80 [22]: 0.313 µg/mL
- neutralization MPI [22]: 100
- neutralization IC50 [23]: 0.056 µg/mL
- neutralization IC80 [23]: 0.201 µg/mL
- neutralization MPI [23]: 100
- neutralization IC50 [24]: 0.22 µg/mL
- neutralization IC80 [24]: 0.767 µg/mL
- neutralization MPI [24]: 100
- neutralization IC50 [25]: 0.035 µg/mL
- neutralization IC80 [25]: 0.124 µg/mL
- neutralization MPI [25]: 100
- neutralization IC50 [26]: 0.052 µg/mL
- neutralization IC80 [26]: 0.21 µg/mL
- neutralization MPI [26]: 100
- neutralization IC50 [27]: 22.3 µg/mL
- neutralization IC80 [27]: > 50 µg/mL
- neutralization MPI [27]: 75
- neutralization IC50 [28]: 0.009 µg/mL
- neutralization IC80 [28]: 0.041 µg/mL
- neutralization MPI [28]: 100
- neutralization IC50 [29]: 0.113 µg/mL
- neutralization IC80 [29]: 0.506 µg/mL
- neutralization MPI [29]: 100
- neutralization IC50 [30]: 0.167 µg/mL
- neutralization IC80 [30]: 0.579 µg/mL
- neutralization MPI [30]: 100
- neutralization IC50 [31]: 0.107 µg/mL
- neutralization IC80 [31]: 0.365 µg/mL
- neutralization MPI [31]: 100
- neutralization IC50 [32]: 0.081 µg/mL
- neutralization IC80 [32]: 0.377 µg/mL
- neutralization MPI [32]: 100

Substance: PGDM1400 (antibody)
- IC50 [1]: > 50 µg/mL
- IC80 [1]: > 50 µg/mL
- IC50, titer in TZM.bl cells [2]: 0.005 µg/mL
- IC80, titer in TZM.bl cells [2]: 0.032 µg/mL
- IC50 [3]: < 0.001 µg/mL
- IC80 [3]: 0.002 µg/mL
- IC50 [4]: 0.003 µg/mL
- IC80 [4]: 0.012 µg/mL
- IC50 [5]: < 0.001 µg/mL
- IC80 [5]: < 0.001 µg/mL
- IC50 [7]: > 50 µg/mL
- IC80 [7]: > 50 µg/mL
- IC50 [8]: 3.26 µg/mL
- IC80 [8]: 11.8 µg/mL
- IC50 [9]: 1.26 µg/mL
- IC80 [9]: 3.59 µg/mL
- IC50 [10]: > 50 µg/mL
- IC80 [10]: > 50 µg/mL
- IC50 [11]: < 0.001 µg/mL
- IC80 [11]: 0.003 µg/mL
- IC50 [12]: < 0.001 µg/mL
- IC80 [12]: 0.007 µg/mL
- IC50 [13]: 0.002 µg/mL
- IC80 [13]: 0.011 µg/mL
- IC50 [14]: 0.049 µg/mL
- IC80 [14]: 0.23 µg/mL
- IC50, titer in TZM.bl cells [33]: > 50 µg/mL
- IC80, titer in TZM.bl cells [33]: > 50 µg/mL
- IC50 [15]: < 0.001 µg/mL
- IC80 [15]: 0.001 µg/mL
- IC50, titer in TZM.bl cells [16]: < 0.001 µg/mL
- IC80, titer in TZM.bl cells [16]: 0.01 µg/mL
- IC50 [17]: > 50 µg/mL
- IC80 [17]: > 50 µg/mL
- IC50, titer in TZM.bl cells [34]: 0.671 µg/mL
- IC80, titer in TZM.bl cells [34]: 2 µg/mL
- IC50, titer in TZM.bl cells [18]: 0.006 µg/mL
- IC80, titer in TZM.bl cells [18]: 0.021 µg/mL
- IC50 [19]: 4.32 µg/mL
- IC80 [19]: > 50 µg/mL
- IC50, titer in TZM.bl cells [35]: 0.048 µg/mL
- IC80, titer in TZM.bl cells [35]: 0.245 µg/mL
- IC50 [20]: 0.063 µg/mL
- IC80 [20]: 0.285 µg/mL
- IC50, titer in TZM.bl cells [21]: 0.009 µg/mL
- IC80, titer in TZM.bl cells [21]: 40.3 µg/mL
- IC50, titer in TZM.bl cells [22]: 1.43 µg/mL
- IC80, titer in TZM.bl cells [22]: 6.92 µg/mL
- IC50 [23]: 0.02 µg/mL
- IC80 [23]: 0.103 µg/mL
- IC50, titer in TZM.bl cells [24]: 0.088 µg/mL
- IC80, titer in TZM.bl cells [24]: 0.393 µg/mL
- IC50 [25]: 0.077 µg/mL
- IC80 [25]: 0.246 µg/mL
- IC50 [26]: < 0.001 µg/mL
- IC80 [26]: 0.003 µg/mL
- IC50, titer in TZM.bl cells [27]: 0.574 µg/mL
- IC80, titer in TZM.bl cells [27]: 4.94 µg/mL
- IC50 [28]: 0.001 µg/mL
- IC80 [28]: 0.007 µg/mL
- IC50, titer in TZM.bl cells [36]: > 50 µg/mL
- IC80, titer in TZM.bl cells [36]: > 50 µg/mL
- IC50, titer in TZM.bl cells [29]: 0.443 µg/mL
- IC80, titer in TZM.bl cells [29]: 1.29 µg/mL
- IC50 [30]: 0.22 µg/mL
- IC80 [30]: 1.25 µg/mL
- IC50 [31]: 0.484 µg/mL
- IC80 [31]: 6.49 µg/mL
- IC50 [32]: 0.039 µg/mL
- IC80 [32]: 0.786 µg/mL
- IC50, titer in TZM.bl cells [37]: 0.013 µg/mL
- IC80, titer in TZM.bl cells [37]: 0.289 µg/mL
